The labels stand for the following.
B1: scDb/Fab-Fc (2-1)+1, trivalent bispecific anti-FAPxanti-CD3 (bispecific antibody, human IgG1, kappa)
chain: QVQLVQSGAEVKKPGSSVKVSCKASGGTFSGYTMNWVRQAPGQGLEWMGLINPYKGVSTYNGKFKDRVTITADKSTSTAYMELSSLRSEDTAVYYCARSGYYGDSDWYFDVWGQGTLVTVSSGGGGSDIQMTQSPSSLSASVGDRVTITCRASKSVSTSAYSYMHWYQQKPGKAPKLLIYLASNLESGVPSRFSGSGSGTDFTLTISSLQPEDFATYYCQHSRELPYTFGQGTKLEIKRGGGGSGGGGSQVQLVQSGAEVKKPGASVKVSCKASGYTFTENIIHWVRQAPGQGLEWMGWFHPGSGSIKYNEKFKDRVTMTADTSTSTVYMELSSLRSEDTAVYYCARHGGTGRGAMDYWGQGTLVTVGGGGSDIQMTQSPSSLSASVGDRVTITCRASQDIRNYLNWYQQKPGKAPKLLIYYTSRLHSGVPSRFSGSGSGTDFTFTISSLQPEDIATYYCQQGNTLPWTFGQGTKLEIKRAAADKTHTCPPCPAPPVAGPSVFLFPPKPKDTLMISRTPEVTCVVVDVSHEDPEVKFNWYVDGVEVHNAKTKPREEQYNSTYRVVSVLTVLHQDWLNGKEYKCKVSNKGLPSSIEKTISKAKGQPREPQVCTLPPSRDELTKNQVSLSCAVKGFYPSDIAVEWESNGQPENNYKTTPPVLDSDGSFFLVSKLTVDKSRWQQGNVFSCSVMHEALHNHYTQKSLSLSPGK
heavy: QVQLVQSGAEVKKPGASVKVSCKASGYTFTENIIHWVRQAPGQGLEWMGWFHPGSGSIKYNEKFKDRVTMTADTSTSTVYMELSSLRSEDTAVYYCARHGGTGRGAMDYWGQGTLVTVSSASTKGPSVFPLAPSSKSTSGGTAALGCLVKDYFPEPVTVSWNSGALTSGVHTFPAVLQSSGLYSLSSVVTVPSSSLGTQTYICNVNHKPSNTKVDKKVEPKSCDKTHTCPPCPAPPVAGPSVFLFPPKPKDTLMISRTPEVTCVVVDVSHEDPEVKFNWYVDGVEVHNAKTKPREEQYNSTYRVVSVLTVLHQDWLNGKEYKCKVSNKGLPSSIEKTISKAKGQPREPQVYTLPPCRDELTKNQVSLWCLVKGFYPSDIAVEWESNGQPENNYKTTPPVLDSDGSFFLYSKLTVDKSRWQQGNVFSCSVMHEALHNHYTQKSLSLSPGK
light: DIQMTQSPSSLSASVGDRVTITCRASKSVSTSAYSYMHWYQQKPGKAPKLLIYLASNLESGVPSRFSGSGSGTDFTLTISSLQPEDFATYYCQHSRELPYTFGQGTKLEIKRRTVAAPSVFIFPPSDEQLKSGTASVVCLLNNFYPREAKVQWKVDNALQSGNSQESVTEQDSKDSTYSLSSTLTLSKADYEKHKVYACEVTHQGLSSPVTKSFNRGEC
notes: also called scDbCD3xFAP-Fc(hole)Δab + VHFAP-CH1-Fc(knob)Δab + VLFAP-CLκ
B2: scDb/scFv-Fc (1-2)+1, trivalent bispecific anti-FAPxanti-CD3 (bispecific antibody)
chain 1: QVQLVQSGAEVKKPGASVKVSCKASGYTFTENIIHWVRQAPGQGLEWMGWFHPGSGSIKYNEKFKDRVTMTADTSTSTVYMELSSLRSEDTAVYYCARHGGTGRGAMDYWGQGTLVTVSSGGGGSDIQMTQSPSSLSASVGDRVTITCRASQDIRNYLNWYQQKPGKAPKLLIYYTSRLHSGVPSRFSGSGSGTDFTFTISSLQPEDIATYYCQQGNTLPWTFGQGTKLEIKRGGGGSGGGGSGGGGSQVQLVQSGAEVKKPGSSVKVSCKASGGTFSGYTMNWVRQAPGQGLEWMGLINPYKGVSTYNGKFKDRVTITADKSTSTAYMELSSLRSEDTAVYYCARSGYYGDSDWYFDVWGQGTLVTVSSGGGGSDIQMTQSPSSLSASVGDRVTITCRASKSVSTSAYSYMHWYQQKPGKAPKLLIYLASNLESGVPSRFSGSGSGTDFTLTISSLQPEDFATYYCQHSRELPYTFGQGTKLEIKRAAADKTHTCPPCPAPPVAGPSVFLFPPKPKDTLMISRTPEVTCVVVDVSHEDPEVKFNWYVDGVEVHNAKTKPREEQYNSTYRVVSVLTVLHQDWLNGKEYKCKVSNKGLPSSIEKTISKAKGQPREPQVCTLPPSRDELTKNQVSLSCAVKGFYPSDIAVEWESNGQPENNYKTTPPVLDSDGSFFLVSKLTVDKSRWQQGNVFSCSVMHEALHNHYTQKSLSLSPGK
chain 2: QVQLVQSGAEVKKPGASVKVSCKASGYTFTENIIHWVRQAPGQGLEWMGWFHPGSGSIKYNEKFKDRVTMTADTSTSTVYMELSSLRSEDTAVYYCARHGGTGRGAMDYWGQGTLVTVSSGGGGSGGGGSGGGGSDIQMTQSPSSLSASVGDRVTITCRASKSVSTSAYSYMHWYQQKPGKAPKLLIYLASNLESGVPSRFSGSGSGTDFTLTISSLQPEDFATYYCQHSRELPYTFGQGTKLEIKRAAADKTHTCPPCPAPPVAGPSVFLFPPKPKDTLMISRTPEVTCVVVDVSHEDPEVKFNWYVDGVEVHNAKTKPREEQYNSTYRVVSVLTVLHQDWLNGKEYKCKVSNKGLPSSIEKTISKAKGQPREPQVYTLPPCRDELTKNQVSLWCLVKGFYPSDIAVEWESNGQPENNYKTTPPVLDSDGSFFLYSKLTVDKSRWQQGNVFSCSVMHEALHNHYTQKSLSLSPGK
notes: The FAP site is hu36; also called scDbFAPxCD3-Fc(hole)Δab + scFvFAP-Fc(knob)Δab
B3: scDb/Fab-Fc (1-2)+1, trivalent bispecific anti-FAPxanti-CD3 (bispecific antibody, human IgG1, kappa)
chain: QVQLVQSGAEVKKPGASVKVSCKASGYTFTENIIHWVRQAPGQGLEWMGWFHPGSGSIKYNEKFKDRVTMTADTSTSTVYMELSSLRSEDTAVYYCARHGGTGRGAMDYWGQGTLVTVSSGGGGSDIQMTQSPSSLSASVGDRVTITCRASQDIRNYLNWYQQKPGKAPKLLIYYTSRLHSGVPSRFSGSGSGTDFTFTISSLQPEDIATYYCQQGNTLPWTFGQGTKLEIKRGGGGSGGGGSGGGGSQVQLVQSGAEVKKPGSSVKVSCKASGGTFSGYTMNWVRQAPGQGLEWMGLINPYKGVSTYNGKFKDRVTITADKSTSTAYMELSSLRSEDTAVYYCARSGYYGDSDWYFDVWGQGTLVTVSSGGGGSDIQMTQSPSSLSASVGDRVTITCRASKSVSTSAYSYMHWYQQKPGKAPKLLIYLASNLESGVPSRFSGSGSGTDFTLTISSLQPEDFATYYCQHSRELPYTFGQGTKLEIKRAAADKTHTCPPCPAPPVAGPSVFLFPPKPKDTLMISRTPEVTCVVVDVSHEDPEVKFNWYVDGVEVHNAKTKPREEQYNSTYRVVSVLTVLHQDWLNGKEYKCKVSNKGLPSSIEKTISKAKGQPREPQVCTLPPSRDELTKNQVSLSCAVKGFYPSDIAVEWESNGQPENNYKTTPPVLDSDGSFFLVSKLTVDKSRWQQGNVFSCSVMHEALHNHYTQKSLSLSPGK
heavy: QVQLVQSGAEVKKPGASVKVSCKASGYTFTENIIHWVRQAPGQGLEWMGWFHPGSGSIKYNEKFKDRVTMTADTSTSTVYMELSSLRSEDTAVYYCARHGGTGRGAMDYWGQGTLVTVSSASTKGPSVFPLAPSSKSTSGGTAALGCLVKDYFPEPVTVSWNSGALTSGVHTFPAVLQSSGLYSLSSVVTVPSSSLGTQTYICNVNHKPSNTKVDKKVEPKSCDKTHTCPPCPAPPVAGPSVFLFPPKPKDTLMISRTPEVTCVVVDVSHEDPEVKFNWYVDGVEVHNAKTKPREEQYNSTYRVVSVLTVLHQDWLNGKEYKCKVSNKGLPSSIEKTISKAKGQPREPQVYTLPPCRDELTKNQVSLWCLVKGFYPSDIAVEWESNGQPENNYKTTPPVLDSDGSFFLYSKLTVDKSRWQQGNVFSCSVMHEALHNHYTQKSLSLSPGK
light: DIQMTQSPSSLSASVGDRVTITCRASKSVSTSAYSYMHWYQQKPGKAPKLLIYLASNLESGVPSRFSGSGSGTDFTLTISSLQPEDFATYYCQHSRELPYTFGQGTKLEIKRRTVAAPSVFIFPPSDEQLKSGTASVVCLLNNFYPREAKVQWKVDNALQSGNSQESVTEQDSKDSTYSLSSTLTLSKADYEKHKVYACEVTHQGLSSPVTKSFNRGEC
notes: also called scDbFAPxCD3-Fc(hole)Δab + VHFAP-CH1-Fc(knob)Δab + VLFAP-CLκ
B4: scDb/scFv-Fc (2-1)+1, trivalent bispecific anti-FAPxanti-CD3 (bispecific antibody)
chain 1: QVQLVQSGAEVKKPGSSVKVSCKASGGTFSGYTMNWVRQAPGQGLEWMGLINPYKGVSTYNGKFKDRVTITADKSTSTAYMELSSLRSEDTAVYYCARSGYYGDSDWYFDVWGQGTLVTVSSGGGGSDIQMTQSPSSLSASVGDRVTITCRASKSVSTSAYSYMHWYQQKPGKAPKLLIYLASNLESGVPSRFSGSGSGTDFTLTISSLQPEDFATYYCQHSRELPYTFGQGTKLEIKRGGGGSGGGGSQVQLVQSGAEVKKPGASVKVSCKASGYTFTENIIHWVRQAPGQGLEWMGWFHPGSGSIKYNEKFKDRVTMTADTSTSTVYMELSSLRSEDTAVYYCARHGGTGRGAMDYWGQGTLVTVGGGGSDIQMTQSPSSLSASVGDRVTITCRASQDIRNYLNWYQQKPGKAPKLLIYYTSRLHSGVPSRFSGSGSGTDFTFTISSLQPEDIATYYCQQGNTLPWTFGQGTKLEIKRAAADKTHTCPPCPAPPVAGPSVFLFPPKPKDTLMISRTPEVTCVVVDVSHEDPEVKFNWYVDGVEVHNAKTKPREEQYNSTYRVVSVLTVLHQDWLNGKEYKCKVSNKGLPSSIEKTISKAKGQPREPQVCTLPPSRDELTKNQVSLSCAVKGFYPSDIAVEWESNGQPENNYKTTPPVLDSDGSFFLVSKLTVDKSRWQQGNVFSCSVMHEALHNHYTQKSLSLSPGK
chain 2: QVQLVQSGAEVKKPGASVKVSCKASGYTFTENIIHWVRQAPGQGLEWMGWFHPGSGSIKYNEKFKDRVTMTADTSTSTVYMELSSLRSEDTAVYYCARHGGTGRGAMDYWGQGTLVTVSSGGGGSGGGGSGGGGSDIQMTQSPSSLSASVGDRVTITCRASKSVSTSAYSYMHWYQQKPGKAPKLLIYLASNLESGVPSRFSGSGSGTDFTLTISSLQPEDFATYYCQHSRELPYTFGQGTKLEIKRAAADKTHTCPPCPAPPVAGPSVFLFPPKPKDTLMISRTPEVTCVVVDVSHEDPEVKFNWYVDGVEVHNAKTKPREEQYNSTYRVVSVLTVLHQDWLNGKEYKCKVSNKGLPSSIEKTISKAKGQPREPQVYTLPPCRDELTKNQVSLWCLVKGFYPSDIAVEWESNGQPENNYKTTPPVLDSDGSFFLYSKLTVDKSRWQQGNVFSCSVMHEALHNHYTQKSLSLSPGK
notes: also called scDbCD3xFAP-Fc(hole)Δab + scFvFAP-Fc(knob)Δab

As a reminder, the EC50 is the concentration needed to bring the measured effect to its halfway point. The low end stands for greater potency, the high end for weaker potency.

This experiment addresses T1, FAP (UniProt Q12884 1-760, limits assumed).
T1 construct: whole, on cells; also called FAP on HT1080-FAP cells
Nature of the experiment: flow cytometry, serial dilution on HT1080-FAP cells (FAP-expressing), PE anti-human Fc detection. Here is the method:
Binding of trivalent, bispecific fusion proteins to FAP-expressing (HT1080-FAP) cell lines was analyzed by flow cytometry. 2×10⁵ cells/well were incubated with a serial dilution of trivalent, bispecific antibodies for 1 h at 4° C. followed by detection using a PE-conjugated anti-human Fc antibody (Jackson ImmunoResearch Laboratories Inc).
A general note: Flow cytometry measures light scatter and fluorescence of single cells or particles in a stream.
B1 yielded an EC50 of 0.4 nM.

For the molecule B2, a half-maximal effect (EC50) was put at 0.6 nM.

The molecule B3 had a concentration giving a half-maximal response (EC50) of 0.5 nM.

B4 showed an EC50 of 0.3 nM.

The record behind these values is patent publication US20220396635A1 (UNIVERSIT T STUTTGART, published 2022).
